Data from the supplement of paper PMC10567573.

B1: TRIM63 (parent)
chain: FRCPTCRHEVIMDRHGVYGLQRNL

Variants of: B1
Test: protein stability index of a GFP-peptide fusion (GPS, HEK-293T) (PSI 1-6); higher = more stable
Details: c terminus: a fixed tail appended
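Further: lentivirally expressed fusions sorted by FACS into six bins by GFP to DsRed ratio, PSI derived from sequencing read proportions per bin multiplied by bin number.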

Protein stability index: each site, then its substitutions
G16: V 1.69, R 1.83, Y 2.49, D 2.47, N 2.2, W 2.31, H 2.34, A 2.15, T 1.65, I 2.15, L 2.21, F 2.65, Q 2.33, E 1.87, P 2.25, C 2.42, K 2.39, M 2.15, S 1.97
D13: Y 1.69, F 1.71, H 1.83, A 2.42, I 2.07, Q 3.89, G 3.87, S 2.13, W 2.09, V 1.32, T 1.9, M 2.79, N 1.04, E 2.44, K 1.76, C 2.18, P 2.15, R 3
M12: L 2.66, D 1.99, E 2.19, Q 2.29, I 3.22, R 2.11, T 2.59, H 2.06, A 2.35, C 2.02, G 2.8, P 1.62, S 3.59, Y 1.73, F 2.18, V 2.98, W 2.17
V10: T 2.62, W 2.16, R 2.41, Y 2.05, P 1.76, Q 1.8, S 3.91
G19: C 2.57, D 1.67, M 1.98, A 2.7, N 2.21, K 2.07, L 1.47, F 2.28, H 2.51, Q 2.46, P 2.25, E 1.86, I 1.92
V17: Y 2.19, G 3.09, L 2.08, W 1.8, P 2.26, Q 3, S 2.77, D 1.58, R 1.53, T 2.66, A 2.98, I 2.41, F 2.75, N 2.28, C 2.47, E 1.43, M 1.69, H 2.23, K 2.19
R14: G 2.01, T 2.29, V 1.54, C 1.63, S 3.39, M 1.91, Y 1.95, I 1.96, W 1.72, L 2.05, H 1.71, D 2.5, P 2.05, E 3.1, A 1.99, F 1.7, Q 2.52, K 2.07, N 2.16
I11: D 1.08, V 1.88, H 2.54, R 3.19, L 2.18, F 2.23, N 2.82, E 1.85, G 3.3, A 1.69, T 2.48, K 1.77, W 1.69, P 2.05, S 2.52, Y 1.74, Q 1.61, C 2.02
H15: G 2.12, P 2.66, A 1.67, S 2.44, Q 3.54, K 2.16, C 2.32, R 1.48, N 2.13, F 1.67, M 2.71, T 2.46, W 2.11, V 3.01, Y 2.49, L 2.17, D 2.08, E 2.43, I 2.19
Y18: L 2.54, H 1.87, F 2.13, K 1.98, V 1.67, Q 3.53, R 2.08, S 2.62, E 3.06, I 1.86, W 1.94, M 3.62, P 2.23, T 2.69, A 1.98, C 2.06, G 2.31, D 1.73
